From PMC12412103, “An Amyloidogenic Fragment of the Spike Protein from SARS-CoV‑2 Virus Stimulates the Aggregation and Toxicity of Parkinson’s Disease Protein Alpha-Synuclein” (ACS Chemical Neuroscience, 2025) come the findings set out here.

The data set “dynamic light scattering” deals with the molecule itself. The data set is described as follows: dynamic light scattering.
Data set [1] has as its target α-synuclein (αSyn), wild type (human, UniProt P37840 1-140). The data set is described as follows: ITC. The note with it: both partners purified.

Several values for one entry are separate records, joined by “and”; a condition that tells them apart may be missing. Equal entries are not always repeated.

B1: Spike 194–203 (S194), fibrillogenic fragment of the Spike protein of SARS-CoV-2 (peptide)
peptide: FKNIDGYFKI
notes: also called mS194 (monomer); fS194 (fibrils)
Take B1: the binding result in the data set “dynamic light scattering” is on record as “binds”. Also, the dH in data set [1] is -200 kcal/mol and -150 kcal/mol.
